Assay results as given in patent publication US20250242041A1 (Seagen, published 2025).

Assays:
[1] = molecular target: T1, cyno αvβ6 on 293F:cynoβ6 cells (human;Macaca fascicularis, UniProt P06756 31-1048; A0A2K5TZ36 22-787); experiment: competition binding on 293F cells
T1 chain 1: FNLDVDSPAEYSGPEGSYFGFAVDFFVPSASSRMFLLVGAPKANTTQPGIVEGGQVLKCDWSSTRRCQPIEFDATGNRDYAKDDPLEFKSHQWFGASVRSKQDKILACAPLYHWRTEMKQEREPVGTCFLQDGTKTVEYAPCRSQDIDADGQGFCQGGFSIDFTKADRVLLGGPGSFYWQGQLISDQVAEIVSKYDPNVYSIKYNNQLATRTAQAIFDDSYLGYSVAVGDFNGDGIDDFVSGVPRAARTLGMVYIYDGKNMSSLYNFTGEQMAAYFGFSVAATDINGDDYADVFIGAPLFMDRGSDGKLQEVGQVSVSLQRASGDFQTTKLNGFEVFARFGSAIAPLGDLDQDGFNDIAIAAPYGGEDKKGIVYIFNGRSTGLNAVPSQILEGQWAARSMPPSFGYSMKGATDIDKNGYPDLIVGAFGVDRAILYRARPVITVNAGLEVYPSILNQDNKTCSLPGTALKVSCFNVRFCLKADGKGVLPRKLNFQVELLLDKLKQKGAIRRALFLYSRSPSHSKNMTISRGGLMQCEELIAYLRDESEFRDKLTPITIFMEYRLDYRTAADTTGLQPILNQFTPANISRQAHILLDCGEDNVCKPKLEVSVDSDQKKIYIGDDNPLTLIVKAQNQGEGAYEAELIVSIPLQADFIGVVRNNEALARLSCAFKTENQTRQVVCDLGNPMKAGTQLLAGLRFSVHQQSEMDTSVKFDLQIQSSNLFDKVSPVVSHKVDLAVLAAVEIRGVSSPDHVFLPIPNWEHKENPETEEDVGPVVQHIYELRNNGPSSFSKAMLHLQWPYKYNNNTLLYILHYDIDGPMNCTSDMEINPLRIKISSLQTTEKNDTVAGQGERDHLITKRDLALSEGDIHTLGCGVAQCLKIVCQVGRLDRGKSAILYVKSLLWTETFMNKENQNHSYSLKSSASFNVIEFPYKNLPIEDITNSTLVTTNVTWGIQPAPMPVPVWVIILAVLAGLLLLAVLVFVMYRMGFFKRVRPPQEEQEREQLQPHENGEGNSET
T1 chain 2: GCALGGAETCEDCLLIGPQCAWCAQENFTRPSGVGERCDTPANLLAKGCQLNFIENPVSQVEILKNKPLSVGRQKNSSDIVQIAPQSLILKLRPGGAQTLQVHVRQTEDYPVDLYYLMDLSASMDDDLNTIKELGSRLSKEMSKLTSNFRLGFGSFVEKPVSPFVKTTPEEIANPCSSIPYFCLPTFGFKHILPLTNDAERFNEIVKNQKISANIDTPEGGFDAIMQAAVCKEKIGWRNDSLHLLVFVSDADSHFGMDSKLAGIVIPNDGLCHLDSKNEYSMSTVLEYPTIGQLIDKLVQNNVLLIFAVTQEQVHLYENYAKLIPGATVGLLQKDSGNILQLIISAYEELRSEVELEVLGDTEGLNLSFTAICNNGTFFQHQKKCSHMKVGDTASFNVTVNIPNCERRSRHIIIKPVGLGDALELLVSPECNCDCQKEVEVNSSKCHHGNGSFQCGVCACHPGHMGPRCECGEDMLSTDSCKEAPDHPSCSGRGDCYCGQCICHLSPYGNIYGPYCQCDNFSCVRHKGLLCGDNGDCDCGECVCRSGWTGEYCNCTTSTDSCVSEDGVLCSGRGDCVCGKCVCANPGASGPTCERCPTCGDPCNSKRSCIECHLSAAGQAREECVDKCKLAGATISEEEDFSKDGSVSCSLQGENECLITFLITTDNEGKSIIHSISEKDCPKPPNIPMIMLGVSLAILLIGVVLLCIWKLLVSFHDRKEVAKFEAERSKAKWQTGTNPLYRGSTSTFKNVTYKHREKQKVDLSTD

[2] = molecular target: T2, human αvβ6 on 293F:huβ6 cells (human, UniProt P06756 31-1048; P18564 22-788); experiment: saturation binding by flow cytometry on 293F:huβ6 cells; also confirmed by competition binding
T2 construct: whole, on cells; also called HEK293F:huβ6
T2 sequence (P18564 22-788, chain 2 of 2, one chain of several): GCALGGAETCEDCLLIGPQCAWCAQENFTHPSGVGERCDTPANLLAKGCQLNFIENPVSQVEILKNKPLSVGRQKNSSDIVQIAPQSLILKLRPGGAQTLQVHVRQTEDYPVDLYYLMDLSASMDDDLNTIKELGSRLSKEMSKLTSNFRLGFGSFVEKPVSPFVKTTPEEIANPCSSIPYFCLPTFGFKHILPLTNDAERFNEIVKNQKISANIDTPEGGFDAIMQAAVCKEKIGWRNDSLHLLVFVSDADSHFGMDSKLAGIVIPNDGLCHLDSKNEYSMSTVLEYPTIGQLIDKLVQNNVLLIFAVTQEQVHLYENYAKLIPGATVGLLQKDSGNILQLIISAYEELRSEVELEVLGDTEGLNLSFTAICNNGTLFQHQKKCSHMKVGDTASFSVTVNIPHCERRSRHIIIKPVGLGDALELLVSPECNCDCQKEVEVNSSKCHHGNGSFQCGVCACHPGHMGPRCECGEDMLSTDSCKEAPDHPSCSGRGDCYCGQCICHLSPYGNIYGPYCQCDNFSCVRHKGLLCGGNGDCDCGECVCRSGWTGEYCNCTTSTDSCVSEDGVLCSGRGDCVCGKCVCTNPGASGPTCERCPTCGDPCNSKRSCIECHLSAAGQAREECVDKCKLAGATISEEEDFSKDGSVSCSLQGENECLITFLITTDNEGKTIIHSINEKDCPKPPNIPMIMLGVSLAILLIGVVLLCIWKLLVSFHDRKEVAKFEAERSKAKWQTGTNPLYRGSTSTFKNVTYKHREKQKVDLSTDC
Protocol: 0.1×10⁶ antigen expressing cells were aliquoted in each well of a 96-well v-bottom plate on ice. The cells were incubated for 1 hour with 2 nM AlexaFluor-647 labeled humanized 2A2 HCLG and increasing concentrations (from 4 pM-1 uM) of unlabeled humanized 2A2 HCLG antibody and h2A2-Mdpr-PEG(12)-gluc-MMAE(8) in buffer (Tris-buffered saline, 2% fetal bovine serum, 0.5 mM MnCl₂, 0.02% NaN₃). Cells were pelleted and washed 3 times with TBS/FBS. The cells were pelleted and resuspended in 125 uL of TBS/FBS. Fluorescent signal of binding was detected using a Becton Dickinson Biosciences LSR II (San Jose, CA). Percent of saturated fluorescent signal was used to determine percent labeled humanized 2A2 antibody bound to cells and to subsequently extrapolate the EC50 by fitting the data to a sigmoidal dose-response curve with variable slope using GraphPad Software (LaJolla, CA).
0.1×10⁶ antigen expressing cells were aliquoted per well into a 96-well v-bottom plate. m2A2 and h2A2 HCLG were directly labeled with AlexaFluor-647 and added to cells at concentrations ranging from 6 pM-340 nM in buffer (Tris-buffered saline, 2% fetal bovine serum, 0.5 mM MnCl₂, 0.02% NaN₃). […] Fluorescent signal of binding was detected using a Becton Dickinson Biosciences LSR II (San Jose, CA). The EC50 was calculated using GraphPad Software (LaJolla, CA).

EC50 [1]: 3 nM
binding result [2]: binds
B1: h2A2 HCLG humanized antibody (antibody, human IgG1, kappa, V domains shown)
VH: QFQLVQSGAEVKKPGASVKVSCKASGYSFTDYNVNWVRQAPGQGLEWIGVINPKYGTTRYNQKFKGRATLTVDKSTSTAYMELSSLRSEDTAVYYCTRGLNAWDYWGQGTLVTVSS
VL: DIQMTQSPSSLSASVGDRVTITCGASENIYGALNWYQQKPGKAPKLLIYGATNLEDGVPSRFSGSGSGRDYTFTISSLQPEDIATYYCQNVLTTPYTFGQGTKLEIKR
notes: Labelled with AlexaFluor-647 in the saturation assay; also called humanized 2A2 HCLG
